Results reported in article PMC9482650, “Quantitative fragmentomics allow affinity mapping of interactomes” (Nature Communications, 2022).

The binders below were run against SCRIB_1, Q14160 (assay: holdup assay). Details: plain residues with an end cap or a label only (N-terminal biotin on a linker: ado-ado).
Design: key: below the threshold = too weak to quantify, mostly under pKd 3.1 to 4

Chain of SCRIB_1, Q14160 (Q14160 718-814): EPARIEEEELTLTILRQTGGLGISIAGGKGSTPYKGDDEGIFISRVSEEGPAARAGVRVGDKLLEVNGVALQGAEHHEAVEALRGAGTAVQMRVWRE

Binder	pKd
IKLETKKTKL [SLC15A2, Q16348]	3.79
PLATCDETSI [SEMA4F, O95754]	4.92

The binders below were run against T1, PDZD7_3, Q9H5P4 (assay: holdup assay). Details: plain residues with an end cap or a label only (N-terminal biotin on a linker: ado-ado).
T1 sequence (Q9H5P4 857-944, limits assumed, looked up): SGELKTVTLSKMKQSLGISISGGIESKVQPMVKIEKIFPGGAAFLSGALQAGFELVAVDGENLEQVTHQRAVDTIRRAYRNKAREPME
Design: key: below the threshold = too weak to quantify, mostly under pKd 3.1 to 4

Binder	pKd
IKLETKKTKL [SLC15A2, Q16348]	4.75
PLATCDETSI [SEMA4F, O95754]	4.43

These binders were tested against T2, LNX2_2, Q8N448 (assay: holdup assay). Details: plain residues with an end cap or a label only (N-terminal biotin on a linker: ado-ado).
T2 sequence (Q8N448 334-432, limits assumed, looked up): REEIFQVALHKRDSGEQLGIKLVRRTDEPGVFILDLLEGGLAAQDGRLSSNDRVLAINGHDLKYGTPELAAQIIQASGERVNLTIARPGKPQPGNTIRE
Design: key: below the threshold = too weak to quantify, mostly under pKd 3.1 to 4

Binder	pKd
IKLETKKTKL [SLC15A2, Q16348]	below the threshold
PLATCDETSI [SEMA4F, O95754]	3.52

The binders below were run against T3, MPDZ_12, O75970 (assay: holdup assay). Details: plain residues with an end cap or a label only (N-terminal biotin on a linker: ado-ado).
T3 sequence (O75970 1857-1958, limits assumed, looked up): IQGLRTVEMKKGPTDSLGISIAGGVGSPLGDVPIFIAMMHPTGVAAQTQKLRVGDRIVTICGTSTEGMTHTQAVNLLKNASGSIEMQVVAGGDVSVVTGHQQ
Design: key: below the threshold = too weak to quantify, mostly under pKd 3.1 to 4

Binder	pKd
IKLETKKTKL [SLC15A2, Q16348]	below the threshold
PLATCDETSI [SEMA4F, O95754]	below the threshold

Each binder was assayed against Inadl_3, Q8NI35 (assay: holdup assay). Details: plain residues with an end cap or a label only (N-terminal biotin on a linker: ado-ado).
Design: key: below the threshold = too weak to quantify, mostly under pKd 3.1 to 4

Chain of Inadl_3, Q8NI35 (Q8NI35 359-469): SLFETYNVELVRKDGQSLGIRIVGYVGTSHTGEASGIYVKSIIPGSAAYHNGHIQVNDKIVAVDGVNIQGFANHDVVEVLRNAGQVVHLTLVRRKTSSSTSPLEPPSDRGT

Binder	pKd
IKLETKKTKL [SLC15A2, Q16348]	below the threshold
PLATCDETSI [SEMA4F, O95754]	below the threshold

The binders below were run against TJP1_2, Q07157 (assay: holdup assay). Details: plain residues with an end cap or a label only (N-terminal biotin on a linker: ado-ado).
Design: key: below the threshold = too weak to quantify, mostly under pKd 3.1 to 4

Chain of TJP1_2, Q07157 (Q07157 181-274): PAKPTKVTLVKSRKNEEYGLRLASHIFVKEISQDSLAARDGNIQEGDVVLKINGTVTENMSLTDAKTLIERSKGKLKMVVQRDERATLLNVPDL

Binder	pKd
IKLETKKTKL [SLC15A2, Q16348]	below the threshold
PLATCDETSI [SEMA4F, O95754]	below the threshold

What follows are binders tested against T4, APBA2_1, Q99767 (assay: holdup assay). Details: plain residues with an end cap or a label only (N-terminal biotin on a linker: ado-ado).
T4 sequence (Q99767 563-664, limits assumed, looked up): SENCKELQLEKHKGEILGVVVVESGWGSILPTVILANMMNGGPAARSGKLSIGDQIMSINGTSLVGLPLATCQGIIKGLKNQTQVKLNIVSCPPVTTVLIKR
Design: key: below the threshold = too weak to quantify, mostly under pKd 3.1 to 4

Binder	pKd
IKLETKKTKL [SLC15A2, Q16348]	3.5
PLATCDETSI [SEMA4F, O95754]	below the threshold

Each binder was assayed against LIMK2, P53671 (assay: holdup assay). Details: plain residues with an end cap or a label only (N-terminal biotin on a linker: ado-ado).
Design: key: below the threshold = too weak to quantify, mostly under pKd 3.1 to 4

Chain of LIMK2, P53671 (P53671 143-248): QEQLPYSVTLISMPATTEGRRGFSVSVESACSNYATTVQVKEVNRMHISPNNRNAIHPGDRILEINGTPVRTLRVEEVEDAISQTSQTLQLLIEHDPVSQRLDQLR

Binder	pKd
IKLETKKTKL [SLC15A2, Q16348]	below the threshold
PLATCDETSI [SEMA4F, O95754]	below the threshold

The binders below were run against GRIP2_3, Q9C0E4 (assay: holdup assay). Details: plain residues with an end cap or a label only (N-terminal biotin on a linker: ado-ado).
Design: key: below the threshold = too weak to quantify, mostly under pKd 3.1 to 4

Chain of GRIP2_3, Q9C0E4 (Q9C0E4 238-339): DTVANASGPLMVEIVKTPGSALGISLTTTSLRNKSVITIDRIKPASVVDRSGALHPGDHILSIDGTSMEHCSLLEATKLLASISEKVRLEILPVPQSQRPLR

Binder	pKd
IKLETKKTKL [SLC15A2, Q16348]	below the threshold
PLATCDETSI [SEMA4F, O95754]	below the threshold

These binders were tested against T5, MPP7, Q5T2T1 (assay: holdup assay). Details: plain residues with an end cap or a label only (N-terminal biotin on a linker: ado-ado).
T5 sequence (Q5T2T1 134-230, limits assumed, looked up): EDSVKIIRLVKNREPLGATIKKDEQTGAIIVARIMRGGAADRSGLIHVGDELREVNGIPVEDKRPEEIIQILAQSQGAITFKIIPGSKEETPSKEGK
Design: key: below the threshold = too weak to quantify, mostly under pKd 3.1 to 4

Binder	pKd
IKLETKKTKL [SLC15A2, Q16348]	below the threshold
PLATCDETSI [SEMA4F, O95754]	3.54

These binders were tested against MAST2, Q6P0Q8 (assay: holdup assay). Details: plain residues with an end cap or a label only (N-terminal biotin on a linker: ado-ado).
Design: key: below the threshold = too weak to quantify, mostly under pKd 3.1 to 4

Chain of MAST2, Q6P0Q8 (Q6P0Q8 1099-1202): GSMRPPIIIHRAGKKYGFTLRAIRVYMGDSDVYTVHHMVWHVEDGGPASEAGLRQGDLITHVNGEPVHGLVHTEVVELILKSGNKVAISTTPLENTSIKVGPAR

Binder	pKd
IKLETKKTKL [SLC15A2, Q16348]	5.56
PLATCDETSI [SEMA4F, O95754]	5.42

Each binder was assayed against T6, TIAM2, Q8IVF5 (assay: holdup assay). Details: plain residues with an end cap or a label only (N-terminal biotin on a linker: ado-ado).
T6 sequence (Q8IVF5 885-986, limits assumed, looked up): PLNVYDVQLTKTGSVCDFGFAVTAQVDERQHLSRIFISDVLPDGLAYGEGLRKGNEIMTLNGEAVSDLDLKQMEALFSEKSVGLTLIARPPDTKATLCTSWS
Design: key: below the threshold = too weak to quantify, mostly under pKd 3.1 to 4

Binder	pKd
IKLETKKTKL [SLC15A2, Q16348]	below the threshold
PLATCDETSI [SEMA4F, O95754]	4.08

Each binder was assayed against T7, GRIP1_7, Q9Y3R0 (assay: holdup assay). Details: plain residues with an end cap or a label only (N-terminal biotin on a linker: ado-ado).
T7 sequence (Q9Y3R0 999-1096, limits assumed, looked up): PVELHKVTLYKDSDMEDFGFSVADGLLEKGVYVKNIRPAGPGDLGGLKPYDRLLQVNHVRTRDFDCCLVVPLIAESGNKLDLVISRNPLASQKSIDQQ
Design: key: below the threshold = too weak to quantify, mostly under pKd 3.1 to 4

Binder	pKd
IKLETKKTKL [SLC15A2, Q16348]	below the threshold
PLATCDETSI [SEMA4F, O95754]	below the threshold

Each binder was assayed against T8, NHERF3_3, Q5T2W1 (assay: holdup assay). Details: plain residues with an end cap or a label only (N-terminal biotin on a linker: ado-ado).
T8 sequence (Q5T2W1 238-333, limits assumed, looked up): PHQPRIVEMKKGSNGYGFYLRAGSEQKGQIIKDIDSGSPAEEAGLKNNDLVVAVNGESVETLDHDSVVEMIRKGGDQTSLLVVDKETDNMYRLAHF
Design: key: below the threshold = too weak to quantify, mostly under pKd 3.1 to 4

Binder	pKd
IKLETKKTKL [SLC15A2, Q16348]	4.67
PLATCDETSI [SEMA4F, O95754]	below the threshold

These binders were tested against T9, SNTG1, Q9NSN8 (assay: holdup assay). Details: plain residues with an end cap or a label only (N-terminal biotin on a linker: ado-ado).
T9 sequence (Q9NSN8 52-150, limits assumed, looked up): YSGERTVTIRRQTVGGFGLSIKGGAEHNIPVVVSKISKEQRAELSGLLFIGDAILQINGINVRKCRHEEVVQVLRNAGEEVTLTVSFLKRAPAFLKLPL
Design: key: below the threshold = too weak to quantify, mostly under pKd 3.1 to 4

Binder	pKd
IKLETKKTKL [SLC15A2, Q16348]	3.64
PLATCDETSI [SEMA4F, O95754]	4.53

Each binder was assayed against T10, APBA2_2, Q99767 (assay: holdup assay). Details: plain residues with an end cap or a label only (N-terminal biotin on a linker: ado-ado).
T10 sequence (Q99767 654-744, limits assumed, looked up): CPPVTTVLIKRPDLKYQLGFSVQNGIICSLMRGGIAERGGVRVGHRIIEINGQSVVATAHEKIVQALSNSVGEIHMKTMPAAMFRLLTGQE
Design: key: below the threshold = too weak to quantify, mostly under pKd 3.1 to 4

Binder	pKd
IKLETKKTKL [SLC15A2, Q16348]	3.52
PLATCDETSI [SEMA4F, O95754]	below the threshold

What follows are binders tested against T11, HTRA4, P83105 (assay: holdup assay). Details: plain residues with an end cap or a label only (N-terminal biotin on a linker: ado-ado).
T11 sequence (P83105 378-476, limits assumed, looked up): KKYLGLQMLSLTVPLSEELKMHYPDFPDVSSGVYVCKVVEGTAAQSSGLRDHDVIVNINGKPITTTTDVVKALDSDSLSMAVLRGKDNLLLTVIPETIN
Design: key: below the threshold = too weak to quantify, mostly under pKd 3.1 to 4

Binder	pKd
IKLETKKTKL [SLC15A2, Q16348]	3.99
PLATCDETSI [SEMA4F, O95754]	below the threshold

What follows are binders tested against T12, FRMPD1, Q5SYB0 (assay: holdup assay). Details: plain residues with an end cap or a label only (N-terminal biotin on a linker: ado-ado).
T12 sequence (Q5SYB0 52-145, limits assumed, looked up): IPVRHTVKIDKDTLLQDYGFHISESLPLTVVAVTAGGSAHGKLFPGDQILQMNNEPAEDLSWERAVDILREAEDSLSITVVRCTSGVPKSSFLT
Design: key: below the threshold = too weak to quantify, mostly under pKd 3.1 to 4

Binder	pKd
IKLETKKTKL [SLC15A2, Q16348]	below the threshold
PLATCDETSI [SEMA4F, O95754]	below the threshold

Each binder was assayed against AHNAK1, Q09666 (assay: holdup assay). Details: plain residues with an end cap or a label only (N-terminal biotin on a linker: ado-ado).
Design: key: below the threshold = too weak to quantify, mostly under pKd 3.1 to 4

Chain of AHNAK1, Q09666 (Q09666 4-100): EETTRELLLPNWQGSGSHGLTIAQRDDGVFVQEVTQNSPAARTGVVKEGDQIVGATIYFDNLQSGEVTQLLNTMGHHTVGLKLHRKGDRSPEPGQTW

Binder	pKd
IKLETKKTKL [SLC15A2, Q16348]	below the threshold
PLATCDETSI [SEMA4F, O95754]	below the threshold

These binders were tested against T13, CARD11, Q9BXL7 (assay: holdup assay). Details: plain residues with an end cap or a label only (N-terminal biotin on a linker: ado-ado).
T13 sequence (Q9BXL7 662-765, limits assumed, looked up): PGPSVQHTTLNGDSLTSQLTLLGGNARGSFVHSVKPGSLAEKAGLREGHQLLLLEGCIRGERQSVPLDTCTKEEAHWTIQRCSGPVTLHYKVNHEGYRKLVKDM
Design: key: below the threshold = too weak to quantify, mostly under pKd 3.1 to 4

Binder	pKd
IKLETKKTKL [SLC15A2, Q16348]	below the threshold
PLATCDETSI [SEMA4F, O95754]	below the threshold

The binders below were run against T14, MPP2, Q14168 (assay: holdup assay). Details: plain residues with an end cap or a label only (N-terminal biotin on a linker: ado-ado).
T14 sequence (Q14168 180-250, limits assumed, looked up): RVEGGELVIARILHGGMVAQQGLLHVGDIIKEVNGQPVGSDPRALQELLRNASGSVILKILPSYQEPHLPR
Design: key: below the threshold = too weak to quantify, mostly under pKd 3.1 to 4

Binder	pKd
IKLETKKTKL [SLC15A2, Q16348]	below the threshold
PLATCDETSI [SEMA4F, O95754]	below the threshold

These binders were tested against ARHGEF12, Q9NZN5-2 (assay: holdup assay). Details: plain residues with an end cap or a label only (N-terminal biotin on a linker: ado-ado).
Design: key: below the threshold = too weak to quantify, mostly under pKd 3.1 to 4

Chain of ARHGEF12, Q9NZN5-2 (Q9NZN5 other isoform, or with tags, fused parts or gaps): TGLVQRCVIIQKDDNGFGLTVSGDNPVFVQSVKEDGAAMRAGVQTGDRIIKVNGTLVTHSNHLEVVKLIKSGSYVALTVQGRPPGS

Binder	pKd
IKLETKKTKL [SLC15A2, Q16348]	4.69
PLATCDETSI [SEMA4F, O95754]	3.81

These binders were tested against T15, DVL3, Q92997 (assay: holdup assay). Details: plain residues with an end cap or a label only (N-terminal biotin on a linker: ado-ado).
T15 sequence (Q92997 244-331, limits assumed, looked up): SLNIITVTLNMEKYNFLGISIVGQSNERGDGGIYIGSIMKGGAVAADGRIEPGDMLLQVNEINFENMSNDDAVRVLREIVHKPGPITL
Design: key: below the threshold = too weak to quantify, mostly under pKd 3.1 to 4

Binder	pKd
IKLETKKTKL [SLC15A2, Q16348]	below the threshold
PLATCDETSI [SEMA4F, O95754]	below the threshold
